According to US11814435B2, “Therapeutic antibodies and their uses” (PFIZER INC., priority 2015, dated 2023):

How the values were obtained:
[1] = tested on: Molp8 LucGFP orthotopic myeloma; assay: Anti-BCMA/CD3 bispecific in combination with standard of care in orthotopic Molp8 tumor model; format: in vivo, NSG mice; details: FIG. 14; bispecific 0.3 mg/kg; bortezomib 1 mg/kg i.p.; lenalidomide 50 mg/kg oral gavage
Procedure: In vivo efficacy study of BCMA bispecifics was performed with Molp8, expressing luciferase and GFP, orthotopic model. Two million Molp8 LucGFP cells were injected intravenously through the tail vein into 6-8 weeks old female NSG animals. Intraperitoneal injection of D-luciferin (Regis Technologies, Morton Grove, Ill.) (200 uL per animal at 15 mg/mL), followed by anesthesia with isofluorane and subsequent whole body bioluminescence imaging (BLI) enabled monitoring of tumor burden. Bioluminescent signals emitted by the interaction between luciferase expressed by the tumor cells and luciferin were captured by imaging using an IVIS Spectrum CT (Perkin Elmer, MA) and quantified as total flux (photons/sec) using Living Image 4.4 (Caliper Life Sciences, Alameda, Calif.). The animals were injected through bolus tail vein on day 7 with 20 million expanded T cells as described in Example 18. Two days post T cell injection, mice were imaged and randomized into five groups of seven mice with an average of 17E6 total flux/group: 1) Combo_Rd4_0.6 nM_C29, 0.3 mg/kg, 2) Combo_Rd4_0.6 nM_C29, 0.3 mg/kg and 1 mg/kg bortezomib, 3) Combo_Rd4_0.6 nM_C29, 0.3 mg/kg and 50 mg/kg lenalidomide, 4) 1 mg/kg bortezomib and 50 mg/kg lenalidomide and 5) vehicle. […]

OPM2 cells = assay: Anti-BCMA/CD3 bispecific with lenalidomide, carfilzomib or doxorubicin, T cell killing of OPM2 (flow cytometry live cells); format: cell-based; details: FIGS. 15A-15C; 1.56 nM carfilzomib, 195 nM lenalidomide, 6.25 nM doxorubicin; three days
Procedure: OPM2 and CD3+ T cells were first incubated with the standard of care for two hours at 37°. 1.56 nM carfilzomib and 6.25 nM doxorubicin were diluted in PBS containing 0.02% DMSO. Lenalidomide was diluted in PBS containing 0.1% DMSO at 195 nM. Cells were treated with 10-fold serially diluted bispecific antibody.

BCMA = molecular target: T1, BCMA (Homo sapiens, UniProt Q02223); details: background; read-out: affinity for BCMA; cited from earlier work
T1 sequence (Q02223 1-184): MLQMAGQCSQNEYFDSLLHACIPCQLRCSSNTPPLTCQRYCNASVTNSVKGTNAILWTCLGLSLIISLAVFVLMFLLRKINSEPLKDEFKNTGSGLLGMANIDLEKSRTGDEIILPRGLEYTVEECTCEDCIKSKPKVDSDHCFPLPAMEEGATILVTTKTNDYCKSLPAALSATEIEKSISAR

hCD3 (human CD3) = hCD3 (human CD3) (Homo sapiens, UniProt P07766); assay: Kinetics and affinity of hCD3/human IgG interactions by SPR (Bio-Rad Proteon XPR36); format: binding; details: 37° C.
Sequence of hCD3 (human CD3) (P07766 23-126 limits assumed): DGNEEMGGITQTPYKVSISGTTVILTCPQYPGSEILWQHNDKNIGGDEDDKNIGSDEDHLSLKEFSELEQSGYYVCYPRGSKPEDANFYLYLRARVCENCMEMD
Sequence of hCD3 (human CD3) (P04234 22-105 partner limits assumed): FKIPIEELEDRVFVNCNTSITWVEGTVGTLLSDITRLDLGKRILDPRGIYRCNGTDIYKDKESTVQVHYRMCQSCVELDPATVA
Procedure: All experiments were performed on a Bio-Rad Proteon XPR36 surface Plasmon resonance biosensor (Bio-Rad, Hercules, Calif.). An array of anti-CD3 antibodies was prepared using an amine-coupling method on a Bio-Rad GLC Sensor Chip similar to that described in Abdiche, et al., Anal. Biochem. 411, 139-151 (2011). The analysis temperature for the immobilization was 25° C. and the running buffer was HBS-T+(10 mM HEPES, 150 mM NaCl, 0.05% Tween-20, pH 7.4). Channels were activated in the analyte (horizontal) direction by injecting a mixture of 1 mM ECD and 0.25 mM NHS for 3 minutes at a flow rate of 30 μL/min. IgGs were immobilized on the activated spots by injecting them in the ligand (vertical) direction at 20 μg/mL in 10 mM Acetate pH 4.5 buffer for 1.5 minutes at […]. The activated surfaces were blocked by injecting 1M ethanolamine, pH 8.5 in the analyte direction for 3 minutes at 30 μL/min.
The analysis temperature for the hCD3 binding analysis was 37° C. or 25° C. in a running buffer of HBS-T+, supplemented with 1 mg/mL BSA. A kinetic titration method was employed for the interaction analysis as described in Abdiche, et al. The hCD3 (human CD3) analyte was injected in the analyte direction using a series of injections from low to high concentration. The concentrations used were 0.08 nM, 0.4 nM, 2 nM, 10 nM and 50 nM (a 5-membered series, with a 5-fold dilution factor and top concentration of 50 nM). The association time for a given analyte dilution was two minutes. Immediately after the 50 nM hCD3 injection, dissociation was monitored for 2 hours. Prior to the hCD3 analyte injections, buffer was injected 5 times using the same association and dissociation times at the hCD3 analyte cycles to prepare a buffer blank sensorgram for double-referencing purposes (double referencing as described in Myszka, J. Mol. Recognit. 12, 279-284 (1999).
The sensorgrams were double-referenced and fit to a 1:1 Langmuir with mass transport kinetic titration model in BIAevaluation Software version 4.1.1 (GE Lifesciences, Piscataway, N.J.).

cynomolgus PBMC = assay: PBMC T cell proliferation by 3H-thymidine incorporation; format: cell-based; details: FIG. 10A/10B, 2 day cultures
Procedure: (§1) Human anti-CD3 antibodies were cloned from immunized mouse, expressed as mouse IgG1, and purified by Protein A affinity beads. Human/Cynomolgus peripheral blood mononuclear cells (hu/cyPBMC) were prepared by Ficoll (Density: 1.083 g/mL, GE) density gradient centrifugation from blood filters obtained from local blood banks. Erythrocytes were removed by incubating in LCK buffer (155 mM NH4Cl, 10 mM KHCO3, […]; Gibco) for 3 minutes at room temperature. Cells were centrifuged for 5 min at 600 g. The supernatant containing the lysed erythrocytes was discarded, and the PBMC were washed twice in 50 ml 1×PBS/1% BSA/1 mM EDTA. The pelleted cells were adjusted to 10^7 cells per ml in culture media, X-VIVO-15, serum free media (Lonza,), and the PBMC were seeded as 10^6 (100 ul) per-well to round bottom 96 well tissue culture plates. Selected Abs are 10× serial diluted from 1000 ng to 1 ng per mL for mixing with human PBMC and 5× serial diluted from 5000 ng to 200 ng per mL for mixing with cynomolgus PBMC. For analysis of PBMC T cell proliferation by ^3H-thymidine incorporation, 2 day cultures were performed in triplicate. During the final 16 h of culture ^3H-thymidine ([…]) was added, and incorporation was measured. Cells are harvested and lysed, DNA is captured onto glass-fiber filter. Radioactivity (cpm) as measure for proliferation by counting on a scintillation beta-counter.

human PBMC = assay: as above; format: cell-based; details: FIG. 10A/10B, 2 day cultures
Procedure: as §1

bsc_hCD3ed = bsc_hCD3ed (Homo sapiens, UniProt P07766); assay: Biacore kinetics anti-xCD3e ab/bsc_hCD3ed; format: binding; details: data fitted from 80 nM-0.64 nM
Sequence of bsc_hCD3ed (P07766 23-126 limits assumed): as the sequence (P07766 23-126 limits assumed) above
Sequence of bsc_hCD3ed (P04234 22-105 partner limits assumed): as the sequence (P04234 22-105 partner limits assumed) above

CC(C)C[C@H](NC(=O)[C@H](Cc1ccccc1)NC(=O)c1cnccn1)B(O)O [bortezomib, [(1R)-3-methyl-1-[[(2S)-1-oxo-3-phenyl-2-[(pyrazinylcarbonyl)amino]propy-l]amino]butyl]boronic acid]
effect of combining on the efficacy of the anti-BCMA/CD3 bispecific antibody [1]: did not have a negative effect

CC(C)C[C@H](NC(=O)[C@H](CCc1ccccc1)NC(=O)CN1CCOCC1)C(=O)N[C@@H](Cc1ccccc1)C(=O)N[C@@H](CC(C)C)C(=O)[C@@]1(C)CO1 [carfilzomib]
effect on the function of Combo_Rd4_0.6 nM_C29-CD3 bispecific antibody on OPM2 cells (OPM2 cells): do not have a negative effect

COc1cccc2c1C(=O)c1c(O)c3c(c(O)c1C2=O)C[C@@](O)(C(=O)CO)C[C@@H]3O[C@H]1C[C@H](N)[C@H](O)[C@H](C)O1 [doxorubicin]
effect on the function of Combo_Rd4_0.6 nM_C29-CD3 bispecific antibody on OPM2 cells (OPM2 cells): do not have a negative effect

Nc1cccc2c1CN(C1CCC(=O)NC1=O)C2=O (stereo not drawn) [lenalidomide]
effect of combining on the efficacy of the anti-BCMA/CD3 bispecific antibody [1]: did not have a negative effect | effect on the function of Combo_Rd4_0.6 nM_C29-CD3 bispecific antibody on OPM2 cells (OPM2 cells): do not have a negative effect

APRIL: a proliferation-inducing ligand, ligand of BCMA
Kd (BCMA): 16 nM

BAFF: B-cell activation factor, ligand of BCMA
Kd (BCMA): 1000 nM

B1: h2B4-VH-yaps VL_TK: anti-CD3 antibody (antibody, V domains shown)
VH: EVQLVESGGGLVQPGGSLRLSCAASGFTFSDYYMTWVRQAPGKGLEWVAFIRNRARGYTSDYAPSVKGRFTISRDNAKNSLYLQMNSLRAEDTAVYYCARDRPSYYVLDYWGQGTTVTVSS
VL: DIVMTQSPDSLAVSLGERATINCKSSQSLFNVRSRKNYLAWYQQKPGQPPKLLISWASTRESGVPDRFSGSGSGTDFTLTISSLQAEDVAVYYCKQSYDLFTFGSGTKLEIK
ka huCD3ed @37° C. (hCD3 (human CD3)): 250000 M⁻¹ s⁻¹ | kd huCD3ed @37° C. (hCD3 (human CD3)): 0.023 s⁻¹

B2: 1A4: anti-CD3 antibody cloned from mouse hybridoma, expressed as mouse IgG1 (antibody, V domains shown)
VH: QVQLQQSGPDLVKPGASVEISCKASGYSFTTYYLHWVRQRPGQGLEWIGWIFPGSDNTKYNEKFKGKATLTADTSSSTAYMQLSSLTSEDSAVYFCARNRDYYFDYWGQGTTVTVSS
VL: DIVMSQSPSSLAVSAGEKVTMSCKSSQSLLNSRTRKNYLAWYQQKPGQSPKLLIYWASTRASGVPDRFTGSGSGTDFTLTISSVQAEDLAIYYCKQSFILRTFGGGTKLEIK
modifications: mouse IgG1 constant regions
Thymidine incorporation (cynomolgus PBMC): had Thymidine incorporation reading | Thymidine incorporation (human PBMC): had Thymidine incorporation reading

B3: 1C10: anti-CD3 antibody cloned from mouse hybridoma, expressed as mouse IgG1 (antibody, V domains shown)
VH: QVQLQQPGSELVRPGASVILSCKASGYTFTSYWMHWVRQRPGQGLEWIGNIYSGGDTINYDEKFKNKAILTVDTSSSTAYMHLSSLTSEDSAVYYCTRDATSRYFFDYWGQGTTVTVSS
VL: DIVMSQSPSSLAVSAGEKVTMSCKSSQSLLNSRTRKNYLAWYQQKPGQSPKLLIYWASTRESGVPDRFTGSGSGTDFTLTIDSVQPEDLAVYYCTQSFILRTFGGGTKLEIK
modifications: mouse IgG1 constant regions
Thymidine incorporation (cynomolgus PBMC): had Thymidine incorporation reading | Thymidine incorporation (human PBMC): had Thymidine incorporation reading | ka (bsc_hCD3ed): 2.96E+05 | kd (bsc_hCD3ed): 2.37E−03

B4: 7A3: anti-CD3 antibody cloned from mouse hybridoma, expressed as mouse IgG1 (antibody, V domains shown)
VH: EVQLQQSGAELVRPGALVKLSCKGSGFNIKDYYIHWVKQRPEQGLEWIGWIDPENGNNKYDPKFQGKASITADTSSNIAYLQLSSLTSEDTAVYYCARNDNYAFDYWGQGTTVTVSS
VL: DIVVSQSPSSLAVSAGEKVIMSCKSSQSLLNSRTRKNYLAWYQLKPGQSPKLLIYSASTRESGVPDRFTGSGSGTDFTLTISSVQTEDLAVYYCMQSFTLRTFGGGTKLEIK
modifications: mouse IgG1 constant regions
Thymidine incorporation (cynomolgus PBMC): had Thymidine incorporation reading | Thymidine incorporation (human PBMC): had Thymidine incorporation reading

B5: 2B4: anti-CD3 antibody cloned from mouse hybridoma, expressed as mouse IgG1 (antibody, V domains shown)
VH: EVKLVESGGGLVQPGGSLRLSCATFGFTFTDYYMTWVRQPPGKALEWVAFIRNRARGYTSDHNASVKGRFTISRDNSQNILYLQMNTLRAEDSATYYCARDRPSYYVLDYWGQGTTVTVSS
VL: DIVMSQSPPSLAVSVGDKVTMSCTSSQSLFNSRSRKNYLAWYQQKSGQSPKLLISWASTRESGVPDRFTGSGSGTDFTLTISSVQAEDLAVYYCKQSYDLFTFGSGTKLEIK
modifications: mouse IgG1 constant regions
Thymidine incorporation (cynomolgus PBMC): had Thymidine incorporation reading | Thymidine incorporation (human PBMC): had Thymidine incorporation reading | ka (bsc_hCD3ed): 3.74E+05 | kd (bsc_hCD3ed): 2.74E−03
